Measurements published in paper PMC8734478 (Science (New York, N.Y.), 2021).
Ends that are not written are not given here. * marks the point of attachment. Palmitoyl = CCCCCCCCCCCCCCCC(=O)*

Target: human Hedgehog acyltransferase (HHAT) (human, UniProt Q5VTY9 1-493)
Experiment: cryo-EM structure

Sequence of human Hedgehog acyltransferase (HHAT) (Q5VTY9 whole entry): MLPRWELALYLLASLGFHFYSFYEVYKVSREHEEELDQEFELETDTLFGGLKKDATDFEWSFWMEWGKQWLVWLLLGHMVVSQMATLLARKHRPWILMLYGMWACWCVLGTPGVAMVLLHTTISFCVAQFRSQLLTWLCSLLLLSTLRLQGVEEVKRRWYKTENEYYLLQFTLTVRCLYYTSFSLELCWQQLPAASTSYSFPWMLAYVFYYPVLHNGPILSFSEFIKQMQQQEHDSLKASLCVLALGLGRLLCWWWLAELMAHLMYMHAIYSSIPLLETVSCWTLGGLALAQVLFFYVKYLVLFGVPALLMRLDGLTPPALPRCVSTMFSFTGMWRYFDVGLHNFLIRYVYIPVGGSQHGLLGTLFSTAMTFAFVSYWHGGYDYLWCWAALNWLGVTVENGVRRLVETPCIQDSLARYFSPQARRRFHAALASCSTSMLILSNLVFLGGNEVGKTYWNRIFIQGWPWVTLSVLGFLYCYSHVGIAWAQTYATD

B1: palmitoylated Hedgehog peptide product (first 12 amino acids of partially processed human Sonic Hedgehog) (peptide, UniProt Q15465 24-35, looked up)
peptide: Palmitoyl-CGPGRGFGKRRH
binding result: binds
